B1: Nucleus-vacuole junction protein 1 (Saccharomyces cerevisiae), P38881 (parent)
chain: MTRPPLVRGIFSLGLSVAVLKGVEKTVRKHLERQGWIEPQKVDYELIFTIDRLKNLVDNKREALTAEQPDAGELSWRKVFNFISRQSSELDTRIYVLILLLSFLLPIAWTVLDGDRETTLEDKDNDCNVDLIENERRLKHYNDGERAVLQFGKNRSEPIILSYKDMNVLEGEHEFTSKEEHSNSHLTSKSENALNQVGSEDLLGCHLEKQLEEDKNEPNGEADGEDDNNREKDCSSSSEVESQSKCRKESTAEPDSLSRDTRTTSSLKSSTSFPISFKGSIDLKSLNQPSSLLHIQVSPTKSSNLDAQVNTEQAYSQPFRY
partner: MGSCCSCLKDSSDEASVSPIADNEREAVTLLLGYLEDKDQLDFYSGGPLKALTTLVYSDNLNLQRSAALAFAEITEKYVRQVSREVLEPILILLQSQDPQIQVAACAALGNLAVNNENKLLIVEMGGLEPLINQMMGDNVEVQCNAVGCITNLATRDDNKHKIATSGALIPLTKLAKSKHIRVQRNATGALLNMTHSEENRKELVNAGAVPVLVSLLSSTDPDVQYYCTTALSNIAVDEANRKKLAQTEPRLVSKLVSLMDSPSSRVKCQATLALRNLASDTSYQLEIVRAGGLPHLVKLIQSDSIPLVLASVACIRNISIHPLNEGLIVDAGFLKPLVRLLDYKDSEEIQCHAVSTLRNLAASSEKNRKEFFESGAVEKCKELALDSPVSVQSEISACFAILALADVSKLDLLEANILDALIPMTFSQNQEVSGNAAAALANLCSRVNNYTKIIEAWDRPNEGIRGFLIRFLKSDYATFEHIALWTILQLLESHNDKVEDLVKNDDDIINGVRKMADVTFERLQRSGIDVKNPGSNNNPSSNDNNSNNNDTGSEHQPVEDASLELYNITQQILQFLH
B2: Vacuolar protein 8 (Saccharomyces cerevisiae), P39968 (parent)
chain: B1 partner
partner: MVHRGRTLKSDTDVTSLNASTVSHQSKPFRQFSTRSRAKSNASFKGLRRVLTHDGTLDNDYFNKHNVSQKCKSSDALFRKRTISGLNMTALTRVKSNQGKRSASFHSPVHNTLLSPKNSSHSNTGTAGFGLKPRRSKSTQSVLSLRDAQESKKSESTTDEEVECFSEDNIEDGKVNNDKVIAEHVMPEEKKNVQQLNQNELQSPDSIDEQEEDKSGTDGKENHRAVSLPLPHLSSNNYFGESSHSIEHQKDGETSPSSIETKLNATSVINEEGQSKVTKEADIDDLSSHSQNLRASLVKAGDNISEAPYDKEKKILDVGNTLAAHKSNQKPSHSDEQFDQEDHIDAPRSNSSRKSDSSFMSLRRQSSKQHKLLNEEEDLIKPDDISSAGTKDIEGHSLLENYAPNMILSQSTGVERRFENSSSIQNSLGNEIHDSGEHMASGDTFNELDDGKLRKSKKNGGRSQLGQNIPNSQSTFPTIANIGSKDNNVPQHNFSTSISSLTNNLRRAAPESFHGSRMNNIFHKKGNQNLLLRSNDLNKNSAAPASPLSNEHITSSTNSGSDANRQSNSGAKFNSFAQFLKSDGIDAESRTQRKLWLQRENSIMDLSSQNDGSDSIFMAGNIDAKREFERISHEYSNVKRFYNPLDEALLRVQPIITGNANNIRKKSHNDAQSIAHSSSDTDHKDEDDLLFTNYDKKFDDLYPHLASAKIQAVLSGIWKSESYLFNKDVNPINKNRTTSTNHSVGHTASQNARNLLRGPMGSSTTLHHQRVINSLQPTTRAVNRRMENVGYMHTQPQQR
B3: Vacuolar protein 8 (Saccharomyces cerevisiae), P39968 (parent)
chain: B1 partner
partner: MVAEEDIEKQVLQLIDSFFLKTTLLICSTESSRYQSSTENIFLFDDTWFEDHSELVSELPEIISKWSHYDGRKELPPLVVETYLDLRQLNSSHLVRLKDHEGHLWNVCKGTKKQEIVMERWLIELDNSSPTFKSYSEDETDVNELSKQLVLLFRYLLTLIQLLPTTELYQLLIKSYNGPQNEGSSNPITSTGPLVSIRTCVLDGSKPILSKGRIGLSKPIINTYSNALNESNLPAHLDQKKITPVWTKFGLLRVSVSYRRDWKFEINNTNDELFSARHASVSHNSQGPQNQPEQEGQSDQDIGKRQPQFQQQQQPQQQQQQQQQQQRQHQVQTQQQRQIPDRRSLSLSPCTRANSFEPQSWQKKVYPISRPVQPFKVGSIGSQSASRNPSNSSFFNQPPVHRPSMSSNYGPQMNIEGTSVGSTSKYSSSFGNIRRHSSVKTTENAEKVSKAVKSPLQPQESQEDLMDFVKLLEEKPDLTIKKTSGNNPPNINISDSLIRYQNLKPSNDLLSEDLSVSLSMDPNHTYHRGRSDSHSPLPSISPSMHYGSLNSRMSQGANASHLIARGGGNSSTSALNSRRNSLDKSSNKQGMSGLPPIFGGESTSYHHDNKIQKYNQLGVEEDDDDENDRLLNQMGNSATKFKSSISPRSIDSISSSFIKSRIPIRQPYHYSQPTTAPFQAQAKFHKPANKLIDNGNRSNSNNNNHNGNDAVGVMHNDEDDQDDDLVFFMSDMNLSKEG
B4: Vacuolar protein 8 (Saccharomyces cerevisiae), P39968 (parent)
chain: B1 partner
partner: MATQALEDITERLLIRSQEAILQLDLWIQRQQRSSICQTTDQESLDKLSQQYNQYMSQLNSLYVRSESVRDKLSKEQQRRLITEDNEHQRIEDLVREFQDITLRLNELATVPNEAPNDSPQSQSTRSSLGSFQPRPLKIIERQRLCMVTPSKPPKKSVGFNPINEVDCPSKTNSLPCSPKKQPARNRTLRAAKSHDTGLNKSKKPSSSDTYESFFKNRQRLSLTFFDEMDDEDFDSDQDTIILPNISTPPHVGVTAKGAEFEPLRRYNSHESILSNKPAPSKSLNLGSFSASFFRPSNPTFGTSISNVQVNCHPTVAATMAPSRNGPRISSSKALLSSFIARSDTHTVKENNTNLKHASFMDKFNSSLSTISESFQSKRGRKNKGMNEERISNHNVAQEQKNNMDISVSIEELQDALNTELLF
B5: Vacuolar protein 8 (Saccharomyces cerevisiae), P39968 (parent)
chain: B1 partner
partner: B1 chain

Variants of: B1
Details: with vac8_yeast VAC8, P39968

Row | effect of a mutation on the interaction | Variant
1 | with no effect | MTRPPLVRGIFSLGLSVAVLKGVEKTVRKHLERQGWIEPQKVDYELIFTIDRLKNLVDNKREALTAEQPDAGELSWRKVFNFISRQSSELDTRIYVLILLLSFLLPIAWTVLDGDRETTLEDKDNDCNVDLIENERRLKHYNDGERAVLQFGKNRSEPIILSYKDMNVLEGEHEFTSKEEHSNSHLTSKSENALNQVGSEDLLGCHLEKQLEEDKNEPNGEADGEDDNNREKDCSSSSEVESQSKCRKESTAEPDSLSRDTRTTSSLKSSTSFPISFKGSIDLKSLNQPSSLLHIQVSSTKSSNLDAQVNTEQAYSQPFRY [P299S]

Variants of: B2
Details: with tco89_yeast TCO89, Q08921

Row | effect of a mutation on the interaction | Variant
2 | with no effect | MGSCCSCLKDSSDEASVSPIADNEREAVTLLLGYLEDKDQLDFYSGGPLKALTTLVYSDNLNLQRSAALAFAEITEKYVRQVSREVLEPILILLQSQDPQIQVAACAALGNLAVNNENKLLIVEMGGLEPLINQMMGDNVEVQCNAVGCITNLATRDDNKHKIATSGALIPLTKLAKSKHIRVQRNATGALLNMTHSEENRKELVNAGAVPVLVSLLSSTDPDVQYYCTTALSNIAVDEANRKKLAQTEPRLVSKLVSLMDSPSSRVKCQATLALENLASDTSYQLEIVRAGGLPHLVKLIQSDSIPLVLASVACIENISIHPLNEGLIVDAGFLKPLVRLLDYKDSEEIQCHAVSTLENLAASSEKNRKEFFESGAVEKCKELALDSPVSVQSEISACFAILALADVSKLDLLEANILDALIPMTFSQNQEVSGNAAAALANLCSRVNNYTKIIEAWDRPNEGIRGFLIRFLKSDYATFEHIALWTILQLLESHNDKVEDLVKNDDDIINGVRKMADVTFERLQRSGIDVKNPGSNNNPSSNDNNSNNNDTGSEHQPVEDASLELYNITQQILQFLH [R276E;R317E;R359E]

Variants of: B3
Details: with atg13_yeast ATG13, Q06628

Row | effect of a mutation on the interaction | Variant
3 | disrupting interaction strength | MGSCCSCLKDSSDEASVSPIADNEREAVTLLLGYLEDKDQLDFYSGGPLKALTTLVYSDNLNLQRSAALAFAEITEKYVRQVSREVLEPILILLQSQDPQIQVAACAALGNLAVNNENKLLIVEMGGLEPLINQMMGDNVEVQCNAVGCITNLATRDDNKHKIATSGALIPLTKLAKSKHIRVQRNATGALLNMTHSEENRKELVNAGAVPVLVSLLSSTDPDVQYYCTTALSNIAVDEANRKKLAQTEPRLVSKLVSLMDSPSSRVKCQATLALENLASDTSYQLEIVRAGGLPHLVKLIQSDSIPLVLASVACIENISIHPLNEGLIVDAGFLKPLVRLLDYKDSEEIQCHAVSTLENLAASSEKNRKEFFESGAVEKCKELALDSPVSVQSEISACFAILALADVSKLDLLEANILDALIPMTFSQNQEVSGNAAAALANLCSRVNNYTKIIEAWDRPNEGIRGFLIRFLKSDYATFEHIALWTILQLLESHNDKVEDLVKNDDDIINGVRKMADVTFERLQRSGIDVKNPGSNNNPSSNDNNSNNNDTGSEHQPVEDASLELYNITQQILQFLH [R276E;R317E;R359E]

Variants of: B4
Details: with vac17_yeast VAC17, P25591

Row | effect of a mutation on the interaction | Variant
4 | with no effect | MGSCCSCLKDSSDEASVSPIADNEREAVTLLLGYLEDKDQLDFYSGGPLKALTTLVYSDNLNLQRSAALAFAEITEKYVRQVSREVLEPILILLQSQDPQIQVAACAALGNLAVNNENKLLIVEMGGLEPLINQMMGDNVEVQCNAVGCITNLATRDDNKHKIATSGALIPLTKLAKSKHIRVQRNATGALLNMTHSEENRKELVNAGAVPVLVSLLSSTDPDVQYYCTTALSNIAVDEANRKKLAQTEPRLVSKLVSLMDSPSSRVKCQATLALENLASDTSYQLEIVRAGGLPHLVKLIQSDSIPLVLASVACIENISIHPLNEGLIVDAGFLKPLVRLLDYKDSEEIQCHAVSTLENLAASSEKNRKEFFESGAVEKCKELALDSPVSVQSEISACFAILALADVSKLDLLEANILDALIPMTFSQNQEVSGNAAAALANLCSRVNNYTKIIEAWDRPNEGIRGFLIRFLKSDYATFEHIALWTILQLLESHNDKVEDLVKNDDDIINGVRKMADVTFERLQRSGIDVKNPGSNNNPSSNDNNSNNNDTGSEHQPVEDASLELYNITQQILQFLH [R276E;R317E;R359E]

Variants of: B5
Details: with nvj1_yeast NVJ1, P38881

Row | effect of a mutation on the interaction | Variant
5 | disrupting interaction strength | MGSCCSCLKDSSDEASVSPIADNEREAVTLLLGYLEDKDQLDFYSGGPLKALTTLVYSDNLNLQRSAALAFAEITEKYVRQVSREVLEPILILLQSQDPQIQVAACAALGNLAVNNENKLLIVEMGGLEPLINQMMGDNVEVQCNAVGCITNLATRDDNKHKIATSGALIPLTKLAKSKHIRVQRNATGALLNMTHSEENRKELVNAGAVPVLVSLLSSTDPDVQYYCTTALSNIAVDEANRKKLAQTEPRLVSKLVSLMDSPSSRVKCQATLALENLASDTSYQLEIVRAGGLPHLVKLIQSDSIPLVLASVACIENISIHPLNEGLIVDAGFLKPLVRLLDYKDSEEIQCHAVSTLENLAASSEKNRKEFFESGAVEKCKELALDSPVSVQSEISACFAILALADVSKLDLLEANILDALIPMTFSQNQEVSGNAAAALANLCSRVNNYTKIIEAWDRPNEGIRGFLIRFLKSDYATFEHIALWTILQLLESHNDKVEDLVKNDDDIINGVRKMADVTFERLQRSGIDVKNPGSNNNPSSNDNNSNNNDTGSEHQPVEDASLELYNITQQILQFLH [R276E;R317E;R359E]

Variants of: B5
Details: with nvj1_yeast NVJ1, P38881
Remark: another data set of the same source

Row | effect of a mutation on the interaction | Variant
6 | disrupting interaction strength | MGSCCSCLKDSSDEASVSPIADNEREAVTLLLGYLEDKDQLDFYSGGPLKALTTRVYSDNLNLQRSAALAFAEITEKYVRQVSREVLEPILILLQSQDPQIQVAACAALGNLAVNNENKLLIVEMGGLEPLINQMMGDNVEVQCNAVGCITNLATRDDNKHKIATSGALIPLTKLAKSKHIRVQRNATGALLNMTHSEENRKELVNAGAVPVLVSLLSSTDPDVQYYCTTALSNIAVDEANRKKLAQTEPRLVSKLVSLMDSPSSRVKCQATLALRNLASDTSYQLEIVRAGGLPHLVKLIQSDSIPLVLASVACIRNISIHPLNEGLIVDAGFLKPLVRLLDYKDSEEIQCHAVSTLRNLAASSEKNRKEFFESGAVEKCKELALDSPVSVQSEISACFAILALADVSKLDLLEANILDALIPMTFSQNQEVSGNAAAALANLCSRVNNYTKIIEAWDRPNEGIRGFLIRFLKSDYATFEHIALWTILQLLESHNDKVEDLVKNDDDIINGVRKMADVTFERLQRSGIDVKNPGSNNNPSSNDNNSNNNDTGSEHQPVEDASLELYNITQQILQFLH [L55R]
7 | disrupting interaction strength | MGSCCSCLKDSSDEASVSPIADNEREAVTLLLGYLEDKDQLDFYSGGPLKRLTTLVYSDNLNLQRSAALAFAEITEKYVRQVSREVLEPILILLQSQDPQIQVAACAALGNLAVNNENKLLIVEMGGLEPLINQMMGDNVEVQCNAVGCITNLATRDDNKHKIATSGALIPLTKLAKSKHIRVQRNATGALLNMTHSEENRKELVNAGAVPVLVSLLSSTDPDVQYYCTTALSNIAVDEANRKKLAQTEPRLVSKLVSLMDSPSSRVKCQATLALRNLASDTSYQLEIVRAGGLPHLVKLIQSDSIPLVLASVACIRNISIHPLNEGLIVDAGFLKPLVRLLDYKDSEEIQCHAVSTLRNLAASSEKNRKEFFESGAVEKCKELALDSPVSVQSEISACFAILALADVSKLDLLEANILDALIPMTFSQNQEVSGNAAAALANLCSRVNNYTKIIEAWDRPNEGIRGFLIRFLKSDYATFEHIALWTILQLLESHNDKVEDLVKNDDDIINGVRKMADVTFERLQRSGIDVKNPGSNNNPSSNDNNSNNNDTGSEHQPVEDASLELYNITQQILQFLH [A51R]

Reference: IntAct's records for PubMed 28533415
